T1: membrane-bound CNTFR (m-CNTFR), full-length human CNTFR (amino acids 1-372) (human, UniProt P26992 23-342)
T1 construct: whole, on cells; also called full-length CNTFR; CNTFR on HepG2/CNTFR cells
T1 sequence (looked up): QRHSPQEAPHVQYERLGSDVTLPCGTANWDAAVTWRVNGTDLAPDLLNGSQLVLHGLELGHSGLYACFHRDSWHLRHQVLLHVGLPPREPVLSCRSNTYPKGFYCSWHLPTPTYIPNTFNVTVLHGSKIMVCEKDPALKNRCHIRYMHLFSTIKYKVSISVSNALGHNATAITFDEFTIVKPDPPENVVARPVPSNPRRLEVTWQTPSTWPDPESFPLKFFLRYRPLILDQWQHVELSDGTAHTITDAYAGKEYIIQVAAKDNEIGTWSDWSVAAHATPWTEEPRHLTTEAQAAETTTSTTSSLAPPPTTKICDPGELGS

T2: soluble CNTFR (s-CNTFR) (UniProt P26992 23-346, limits assumed)
T2 sequence (looked up): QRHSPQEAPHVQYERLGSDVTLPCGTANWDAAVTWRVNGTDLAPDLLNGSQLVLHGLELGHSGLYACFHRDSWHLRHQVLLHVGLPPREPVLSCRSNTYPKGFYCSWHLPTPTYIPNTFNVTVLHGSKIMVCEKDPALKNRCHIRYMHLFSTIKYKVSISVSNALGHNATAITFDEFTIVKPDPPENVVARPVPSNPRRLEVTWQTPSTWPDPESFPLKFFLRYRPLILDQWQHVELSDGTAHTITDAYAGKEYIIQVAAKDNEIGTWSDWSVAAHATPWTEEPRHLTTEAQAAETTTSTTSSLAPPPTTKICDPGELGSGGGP

T3: solid phase-immobilized CNTFR (UniProt P26992 23-342, limits assumed)
T3 construct: also called CNTF alpha-receptor
T3 sequence (looked up): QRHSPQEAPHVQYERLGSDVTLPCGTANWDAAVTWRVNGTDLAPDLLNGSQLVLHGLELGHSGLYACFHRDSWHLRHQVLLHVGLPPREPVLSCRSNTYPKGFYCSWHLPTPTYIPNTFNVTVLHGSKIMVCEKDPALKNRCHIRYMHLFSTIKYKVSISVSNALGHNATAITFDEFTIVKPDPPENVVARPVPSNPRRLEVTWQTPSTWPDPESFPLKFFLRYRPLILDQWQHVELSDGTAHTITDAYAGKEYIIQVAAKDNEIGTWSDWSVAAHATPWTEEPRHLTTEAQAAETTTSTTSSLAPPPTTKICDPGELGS


Tests used:
[1] = molecular target: T1, membrane-bound CNTFR (m-CNTFR), …; test: CNTF surface binding on HepG2 cells stably transfected with full-length human CNTFR
soluble CNTFR (s-CNTFR) = molecular target: T2, soluble CNTFR (s-CNTFR); test: cell-based or functional assay
[2] = molecular target: T3, solid phase-immobilized CNTFR; test: competition with biotinylated CNTF for binding to solid phase-immobilized CNTFR
Protocol: The CNTFR binding activity of CNTF and IA-CNTF was determined by measuring the ability of the proteins to compete with biotinylated CNTF for binding to solid phase-immobilized CNTFR, using a previously described procedure (Saggio et al., 1994; Saggio et al., 1995).

binding result [1]	stimulation of haptoglobin production in HepG2 cells at a subsaturating concentration of s-CNTFR; EC50 relative to CNTF (soluble CNTFR (s-CNTFR))	fold reduction of affinity against wild-type CNTF [2] [fold]	Binder
binds			human ciliary neurotrophic factor, wild type (hCNTF; SEQ ID NO: 1) (ligand, also called human CNTF; wild-type CNTF) MAFTEHSPLTPHRRDLCSRSIWLARKIRSDLTALTESYVKHQGLNKNINLDSADGMPVASTDQWSELTEAERLQENLQAYRTFHVLLARLLEDQQVHFTPTEGDFHQAIHTLLLQVAAFAYQIEELMILLEYKIPRNEADGMPINVGDGGLFEKKLWGLKVLQELSQWTVRSIHDLRFISSHQTGIPARGSHYIANNKKM
	5 fold (EC50 relative to CNTF)	15	Thr169Ile/His174Ala/human CNTF (IA-CNTF; SEQ ID NO:2) (ligand, Produced in E. coli, purified by reverse-phase HPLC; also called Thr169Ile/His174Ala/hCNTF) MAFTEHSPLTPHRRDLCSRSIWLARKIRSDLTALTESYVKHQGLNKNINLDSADGMPVASTDQWSELTEAERLQENLQAYRTFHVLLARLLEDQQVHFTPTEGDFHQAIHTLLLQVAAFAYQIEELMILLEYKIPRNEADGMPINVGDGGLFEKKLWGLKVLQELSQWIVRSIADLRFISSHQTGIPARGSHYIANNKKM
